From article PMC5965843, “Structural study reveals the temperature-dependent conformational flexibility of Tk-PTP, a protein tyrosine phosphatase from Thermococcus kodakaraensis KOD1” (PLoS ONE, 2018) come the findings set out here.

For orientation: Km means the concentration of substrate that gives half-maximal velocity. Broadly, the kcat is the number of substrate molecules converted per active site and unit of time at saturation.

The target of one data set is T1, Tk-PTP (Thermococcus kodakarensis, UniProt Q8X270).
T1 construct: recombinant, E. coli BL21(DE3) RIL; codon-optimized gene; wild type in pET28a, N-terminal His6-tag removed by thrombin; mutants in pET21a, Ni-NTA purified; P-loop HC93MGGLGR99
Put plainly: X-ray crystal structure, […] Å. It counts as binding. To be noted: active site (P-loop); protein heated at 60°C for 3 h with sodium vanadate at 1:3 molar ratio.
Take `[O]=[V]([OH])([OH])[OH]` [vanadate]: the “X-ray crystal structure, 1.8 Å” value was “Vanadate is anchored in the active site of Tk-PTP(form II)”.

A further data set relates to Cc1cc(=O)oc2c(F)c(OP(=O)(O)O)c(F)cc12. Put plainly: purified protein. As to conditions: 60°C (active form II), pH 5.0 sodium citrate, 200 mM NaCl, 5 mM dithiothreitol.
On to “Tk-PTP (Thermococcus kodakarensis KOD1; G95A)”, for which the Km worked out at 106 ± 10 µM and the kcat stood at 35.8 ± 0.7 s⁻¹.

In the case of “Tk-PTP (Thermococcus kodakarensis KOD1; R124A)”, the Km was 301 ± 109 µM and the kcat is 1.59 ± 0.65 s⁻¹.

As for “Tk-PTP (Thermococcus kodakarensis KOD1; E132A)”, the Km is 23 ± 8.4 µM and the kcat was determined as 3.83 ± 0.14 s⁻¹.

On to “Tk-PTP (Thermococcus kodakarensis KOD1; Q136A)”, for which the Km is 135 ± 16 µM and the kcat is 0.460 ± 0.015 s⁻¹.

Regarding “Tk-PTP (Thermococcus kodakarensis KOD1; E132Q)”, the Km was 150 ± 62 µM and the kcat stood at 8.82 ± 0.13 s⁻¹.

Consider “Tk-PTP (Thermococcus kodakarensis KOD1; D63A)”, for which the Km came to 27.4 ± 10.6 µM and the kcat stood at 1.29 ± 0.047 s⁻¹.

On to Tk-PTP (Thermococcus kodakarensis KOD1), for which the Km was 276 µM and the kcat was determined as 30.0 s⁻¹.

Regarding “Tk-PTP (Thermococcus kodakarensis KOD1; D63N)”, the Michaelis-Menten constant (Km) stood at 252 ± 50 µM and the kcat stood at 2.92 ± 0.15 s⁻¹.

Consider “Tk-PTP (Thermococcus kodakarensis KOD1; R124E)”, for which the Km was 258 ± 43 µM and the kcat turned out to be 0.188 ± 0.052 s⁻¹.

Turning to “Tk-PTP (Thermococcus kodakarensis KOD1; E132L)”, the Km was determined as 251 ± 423 µM and the kcat worked out at 2.97 ± 0.15 s⁻¹.
